The text below walks through data of patent US20180318437A1 (Bayer, published 2018).

The target of experiment [1] is T1, IL-3Ralpha, CD123, on CD123-positive human cancer cell lines (human, UniProt P26951 20-378).
T1 construct: Target of the flow cytometry and internalisation assays; The cell line of each value is named under assay
T1 sequence: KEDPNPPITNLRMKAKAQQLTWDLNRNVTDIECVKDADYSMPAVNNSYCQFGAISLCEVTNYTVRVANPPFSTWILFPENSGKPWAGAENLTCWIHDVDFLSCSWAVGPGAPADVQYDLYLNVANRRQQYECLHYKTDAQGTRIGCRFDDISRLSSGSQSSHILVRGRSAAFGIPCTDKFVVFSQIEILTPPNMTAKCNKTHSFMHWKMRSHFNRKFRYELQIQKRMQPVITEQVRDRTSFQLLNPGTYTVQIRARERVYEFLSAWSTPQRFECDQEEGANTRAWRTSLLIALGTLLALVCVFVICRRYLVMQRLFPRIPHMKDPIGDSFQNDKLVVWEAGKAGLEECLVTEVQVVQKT
Briefly: flow cytometry on MV-4-11 cells, titration from 10 ug/ml in 1:5 steps, anti-kappa-FITC secondary antibody; MV-4-11 cells.
Procedure: Binding of the anti-CD123 antibodies was examined by flow cytometry using different human haematological cell lines (MOLM-13, THP-1, KG-1). To this end, the cells (5×10⁵ cells/well) were incubated in FACS buffer (PBS without Ca/Mg, 3% FCS, Biochrom) with 10 μg/ml primary antibody solution (start concentration) on ice for 30-45 min protected from light. A dose activity curve (1:5 dilution) was plotted. After the incubation, 200 μl of ice-cold FACS buffer were added using a pipette, and the cell suspension was centrifuged at 4° C., 400 g, for 4 min. The cell pellet was washed with 300 μl of ice-cold FACS buffer and the pellet obtained was then resuspended in 100 μl FACS buffer and incubated again with secondary antibody (monoclonal anti-kappa light chains-FITC antibody, Sigma, No. SAB4700605) in a 1:10 dilution on ice for 30 min. The cells were then washed with ice-cold FACS buffer and adjusted to a cell concentration of 0.5×10⁶ cell/ml prior to flow cytometry using a Guava flow cytometer (Millipore). Propidium iodide (final concentration 1 μg/ml) was used for live staining.

Experiment [2] deals with T2, TPP-5521, recombinant antigen IL3Ra aa20-305 (IL3R3alpha/CD123) (murine (as printed under 'Origin' in …, UniProt P26951 20-305 (human entry))).
T2 construct: Bought protein; also called IL3Ra protein; extracellular domain of IL3Ra
T2 sequence: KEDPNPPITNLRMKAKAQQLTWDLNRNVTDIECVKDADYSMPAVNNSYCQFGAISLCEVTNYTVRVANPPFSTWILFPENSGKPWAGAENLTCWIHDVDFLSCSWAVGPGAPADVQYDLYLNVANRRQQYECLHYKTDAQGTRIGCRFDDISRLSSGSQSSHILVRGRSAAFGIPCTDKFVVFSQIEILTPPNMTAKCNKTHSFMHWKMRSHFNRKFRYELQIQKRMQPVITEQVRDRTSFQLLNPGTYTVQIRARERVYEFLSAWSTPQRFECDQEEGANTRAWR
Briefly: SPR, Biacore T200, antibody captured by anti-human Fc, IL3Ra (TPP-5521) as analyte 1.56-200 nM, 25 C, 1:1 Langmuir fit.
Procedure: Surface plasmon resonance experiments for quantitative binding analysis were carried out using a Biacore T200 instrument (GE Healthcare Biacore, Inc.). […] Amine coupling was performed according to the manufacturer's instructions using 1-ethyl-3-(3-dimethylaminopropyl)carbodiimide hydrochloride (EDC), N-hydroxysuccinimide (NHS) and ethanolamine HCl pH 8.5 (“Amine Coupling Kit” BR-1000-50, GE Healthcare Biacore, Inc.). For the analyses, Series S sensor chips CM5 (GE Healthcare Biacore, Inc.) were used with the mobile buffer HBS-EP+ (10 mM HEPES pH 7.4, 150 mM NaCl, 3 mM EDTA, 0.05% Surfactant P20). All experimental steps were carried out at 25° C. […] Prior to another analyte injection, antibodies were in each case fixed as above, under identical conditions. For all measurements, an upstream flow cell only containing immobilized amine-coupled anti-human Fc antibody was used as reference cell. Evaluation of the sensorgrams obtained was, after double referencing (subtraction of the reference flow cell signal and a buffer injection), carried out by a global fit based on a 1:1 Langmuir binding model with the aid of the Biacore T200 evaluation software (GE Healthcare Biacore, Inc.).

B1: TPP-5969 (antibody, human IgG1, kappa, V domains shown)
VH: QVQLVQSGAEVKKPGSSVKVSCKASGGTFSDYYMKWVRQAPGQGLEWMGDIIPSNGATFYAQKFQGRVTITADESTSTAYMELSSLRSEDTAVYYCARSHLLRASWFAYWGQGTLVTVSS
VL: DIVMTQSPDSLAVSLGERATINCESSQSLLNSGNQKNYLTWYQQKPGQPPKLLIYWASTRESGVPDRFSGSGSGTDFTLTISSLQAEDVAVYYCQNDYSYPYTFGQGTKLEIKR
notes: Humanized variant of 7G3 made by CDR grafting, human IgG1 kappa; Tested as unconjugated antibody; also called anti-CD123 AK1A; humanized variant of 7G3
On to B1, for which the response in experiment [1] was half-maximal at 2.6 nM (EC50).

B2: TPP-6013 (antibody, human IgG1, kappa, V domains shown)
VH: QVQLQESGPGLVKPSQSLSLTCSVTDYSITSGYYWNWIRQFPGNKLEWMGYISYDGSNNYNPSLKNRISITRDTSKNQFFLKLSSVTTEDTATYYCSRGEGFYFDSWGQGTTLTVSS
VL: DIMMSQSPSSLAVSVGEKFTMTCKSSQSLFFGSTQKNYLAWYQQKPGQSPKLLIYWASTRESGVPDRFTGSGSGTDFTLAISSVMPEDLAVYYCQQYYNYPWTFGGGTKLEIKR
notes: Tested as unconjugated antibody; also called anti-CD123 AK1C; chimeric variant of 12F1
Consider B2, for which, in experiment [2], the koff was determined as 0.00019 s⁻¹ and the kon is 300000 M⁻¹ s⁻¹.
